Source: patent US20260132183A1 (ACADEMISCH ZIEKENHUIS LEIDEN H O D N LUMC, published 2026)

T1: MAGE-A6 peptide on HLA-B*35:01 (human)
T1 peptide: EVDPIGHVY

T2: MAGE-A1 peptide on HLA-A*02:01 (human)
T2 peptide: KVLEYVIKV

T3: MAGE-A1 peptide on HLA-C*07:02 (human)
T3 peptide: VRFFFPSL

T4: MAGE-A9 peptide on HLA-A*01:01 (human)
T4 peptide: YVGKEHMFY

T5: MAGE-A1 peptide on HLA-A*03:01 (human)
T5 peptide: SLFRAVITK

T6: MAGE-A1 peptide on HLA-B*07:02 (human)
T6 peptide: RVRFFFPSL

T7: MAGE-A3 peptide on HLA-B*35:01 (human)
T7 peptide: EVDPIGHLY

B1: TCR CT23.2H9 (TCR, V domains shown)
Valpha: KDQVFQPSTVASSEGAVVEIFCNHSVSNAYNFFWYLHFPGCAPRLLVKGSKPSQQGRYNMTYERFSSSLLILQVREADAAVYYCAVPNNYGQNFVFGPGTRLSVLP
Vbeta: NAGVTQTPKFRILKIGQSMTLQCTQDMNHNYMYWYRQDPGMGLKLIYYSVGAGITDKGEVPNGYNVSRSTTEDFPLRLELAAPSQTSVYFCASSYSGQGLYEQYFGPGTRLTVT
B2: TCR CT27.4F7 (TCR, V domains shown)
Valpha: GEDVEQSLFLSVREGDSSVINCTYTDSSSTYLYWYKQEPGAGLQLLTYIFSNMDMKQDQRLTVLLNKKDKHLSLRIADTQTGDSAIYFCAESIDARLMFGDGTQLVVKP
Vbeta: DSGVTQTPKHLITATGQRVTLRCSPRSGDLSVYWYQQSLDQGLQFLIQYYNGEERAKGNILERFSAQQFPDLHSELNLSSLELGDSALYFCASSPGGDTQYFGPGTRLTVL
B3: TCR CT31.10C1 (TCR, V domains shown)
Valpha: DQQVKQNSPSLSVQEGRISILNCDYTNSMFDYFLWYKKYPAEGPTFLISISSIKDKNEDGRFTVFLNKSAKHLSLHIVPSQPGDSAVYFCAASAQNNDMRFGAGTRLTVKP
Vbeta: DAGVIQSPRHEVTEMGQEVTLRCKPISGHDYLFWYRQTMMRGLELLIYFNNNVPIDDSGMPEDRFSAKMPNASFSTLKIQPSEPRDSAVYFCASGTGWDTEAFFGQGTRLTVV
B4: TCR CT43.2D8 (TCR, V domains shown)
Valpha: EDKVVQSPLSLVVHEGDTVTLNCSYEVTNFRSLLWYKQEKKAPTFLFMLTSSGIEKKSGRLSSILDKKELSSILNITATQTGDSAIYLCAVEGWDDKIIFGKGTRLHILP
Vbeta: DAGITQSPRHKVTETGTPVTLRCHQTENHRYMYWYRQDPGHGLRLIHYSYGVKDTDKGEVSDGYSVSRSKTEDFLLTLESATSSQTSVYFCAISEGRNEQYFGPGTRLTVT
B5: TCR CT23.3H4 (TCR, V domains shown)
Valpha: RKEVEQDPGPFNVPEGATVAFNCTYSNSASQSFFWYRQDCRKEPKLLMSVYSSGNEDGRFTAQLNRASQYISLLIRDSKLSDSATYLCVVNFNYGQNFVFGPGTRLSVLP
Vbeta: DTGVSQDPRHKITKRGQNVTFRCDPISEHNRLYWYRQTLGQGPEFLTYFQNEAQLEKSRLLSDRFSAERPKGSFSTLEIQRTEQGDSAMYLCASSPLGVNTEAFFGQGTRLTVV
B6: TCR CT12.3G2 (TCR, V domains shown)
Valpha: AQKVTQAQTEISVVEKEDVTLDCVYETRDTTYYLFWYKQPPSGELVFLIRRNSFDEQNEISGRYSWNFQKSTSSFNFTITASQVVDSAVYFCALSEAYSGAGSYQLTFGKGTKLSVIP
Vbeta: EPEVTQTPSHQVTQMGQEVILRCVPISNHLYFYWYRQILGQKVEFLVSFYNNEISEKSEIFDDQFSVERPDGSNFTLKIRSTKLEDSAMYFCASSEALQPQHFGDGTRLSIL

The binders below were run against T8, HLA-A*01:01 with beta-2 microglobulin (human) (assay: pHLA monomer refolding).
T8 construct: also called HLA-A1

| Binder | binding result |
| --- | --- |
| YVGKEHMFY (synthetic peptide) [YVGKEHMFY (MAGE-A9 peptide)] | binds |
| LTQDLVQEKYLEY (synthetic peptide) [LTQDLVQEKYLEY (MAGE-A1 peptide)] | binds |

Each binder was assayed against T9, HLA-A*02:01 with beta-2 microglobulin (human) (assay: pHLA monomer refolding).
T9 construct: also called HLA-A2

| Binder | binding result |
| --- | --- |
| FVYGEPREL (synthetic peptide) [FVYGEPREL (MAGE-C2 peptide)] | binds |
| KVLEFLAKL (synthetic peptide) [KVLEFLAKL (MAGE-C2 peptide)] | binds |
| ALKDVEERV (synthetic peptide) [ALKDVEERV (MAGE-C2 peptide)] | binds |
| ALIEVGPDHFC (synthetic peptide) [ALIEVGPDHFC (MAGE-C2 peptide)] | binds |
| KIWEELSVLEV (synthetic peptide) [KIWEELSVLEV (MAGE-A3/A6 peptide)] | binds |
| TLDEKVAEL (synthetic peptide) [TLDEKVAEL (MAGE-C2 peptide)] | binds |
| GVYDGREHTV (synthetic peptide) [GVYDGREHTV (MAGE-A4 peptide)] | binds |
| VLGEEQEGV (synthetic peptide) [VLGEEQEGV (MAGE-A9 peptide)] | binds |
| KVLEYVIKV (synthetic peptide) [KVLEYVIKV (MAGE-A1 peptide)] | binds |
| VIWEVLNAV (synthetic peptide) [VIWEVLNAV (MAGE-C2 peptide)] | binds |
| GVYAGREHFV (synthetic peptide) [GVYAGREHFV (MAGE-C2 peptide)] | binds |
| ALREEEEGV (synthetic peptide) [ALREEEEGV (MAGE-A1 peptide)] | binds |
| KASEKIFYV (synthetic peptide) [KASEKIFYV (SSX2 peptide)] | binds |

Each binder was assayed against T10, HLA-A*03:01 with beta-2 microglobulin (human) (assay: pHLA monomer refolding).
T10 construct: also called HLA-A3

| Binder | binding result |
| --- | --- |
| SMLGDGHSMPK (synthetic peptide) [SMLGDGHSMPK (MAGE-A9 peptide)] | binds |
| SVMGVYVGK (synthetic peptide) [SVMGVYVGK (MAGE-A9 peptide)] | binds |
| RVRFFFPSLR (synthetic peptide) [RVRFFFPSLR (MAGE-A1 peptide)] | binds |
| RVRIAYPSLR (synthetic peptide) [RVRIAYPSLR (MAGE-A4 peptide)] | binds |
| IVLGVILTK (synthetic peptide) [IVLGVILTK (MAGE-A9 peptide)] | binds |
| ATLPPFMCNK (synthetic peptide) [ATLPPFMCNK (SSX2 peptide)] | binds |
| RIFPKIMPK (synthetic peptide) [RIFPKIMPK (SSX4 peptide)] | binds |
| RCFPVIFGK (synthetic peptide) [RCFPVIFGK (MAGE-A4 peptide)] | binds |

These binders were tested against T11, HLA-B*07:02 with beta-2 microglobulin (human) (assay: pHLA monomer refolding).
T11 construct: also called HLA-B7

| Binder | binding result |
| --- | --- |
| FPSLREAAL (synthetic peptide) [FPSLREAAL (MAGE-A1 peptide)] | binds |
| YPSLREAAL (synthetic peptide) [YPSLREAAL (MAGE-A4 peptide)] | binds |
| RPADLTRVIM (synthetic peptide) [RPADLTRVIM (MAGE-A11 peptide)] | binds |
| RVRIAYPSL (synthetic peptide) [RVRIAYPSL (MAGE-A4 peptide)] | binds |
| RVRFFFPSL (synthetic peptide) [RVRFFFPSL (MAGE-A1 peptide)] | binds |

Each binder was assayed against T12, HLA-C*07:02 with beta-2 microglobulin (human) (assay: pHLA monomer refolding).
T12 construct: also called HLA-C7; C702

| Binder | binding result |
| --- | --- |
| VRFFFPSL (synthetic peptide) [VRFFFPSL (MAGE-A1 peptide)] | binds |

Molecular target: T1, MAGE-A6 peptide on HLA-B*35:01
Assay: cytokine release

| Binder | binding result |
| --- | --- |
| B1 | recognises |

Molecular target: T2, MAGE-A1 peptide on HLA-A*02:01
Assay: multimer staining

| Binder | binding result |
| --- | --- |
| B2 | recognises |

Molecular target: T3, MAGE-A1 peptide on HLA-C*07:02
Assay: multimer staining

| Binder | binding result |
| --- | --- |
| B3 | recognises |

Molecular target: T4, MAGE-A9 peptide on HLA-A*01:01
Assay: multimer staining

| Binder | binding result |
| --- | --- |
| B4 | recognises |

Molecular target: T5, MAGE-A1 peptide on HLA-A*03:01
Assay: multimer staining

| Binder | binding result |
| --- | --- |
| B5 | recognises |

Molecular target: T6, MAGE-A1 peptide on HLA-B*07:02
Assay: multimer staining

| Binder | binding result |
| --- | --- |
| B6 | recognises |

Molecular target: T7, MAGE-A3 peptide on HLA-B*35:01
Assay: multimer staining

| Binder | binding result |
| --- | --- |
| B1 | recognises |
